According to patent US20250376519A1 (JIANGSU HENGRUI PHARMACEUTICALS, published 2025):

T1: human DLL3 on cells (human, UniProt Q9NYJ7 27-618)
T1 sequence: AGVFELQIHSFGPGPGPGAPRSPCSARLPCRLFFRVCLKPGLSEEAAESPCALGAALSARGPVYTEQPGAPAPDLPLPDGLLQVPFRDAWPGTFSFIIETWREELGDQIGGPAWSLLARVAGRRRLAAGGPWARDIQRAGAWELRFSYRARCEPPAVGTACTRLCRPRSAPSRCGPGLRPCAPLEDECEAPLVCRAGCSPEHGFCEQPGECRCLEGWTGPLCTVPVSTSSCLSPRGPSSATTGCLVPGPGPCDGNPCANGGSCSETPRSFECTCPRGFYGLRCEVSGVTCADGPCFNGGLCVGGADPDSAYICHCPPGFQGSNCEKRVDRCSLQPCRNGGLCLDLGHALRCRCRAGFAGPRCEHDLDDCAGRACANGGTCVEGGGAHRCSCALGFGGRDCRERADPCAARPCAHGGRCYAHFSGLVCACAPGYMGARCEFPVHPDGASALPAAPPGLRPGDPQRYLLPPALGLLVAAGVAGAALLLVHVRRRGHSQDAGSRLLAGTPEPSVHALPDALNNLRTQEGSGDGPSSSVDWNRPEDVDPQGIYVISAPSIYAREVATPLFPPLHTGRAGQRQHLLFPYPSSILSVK


Key:
human DLL3 on cells [1] = target: T1, human DLL3 on cells; test: cell-based or functional assay
human DLL3 on cells [2] = target: T1, human DLL3 on cells; test: cell-based or functional assay; remark: listed apart in the source
human DLL3 on cells [3] = target: T1, human DLL3 on cells; test: flow cytometry, hDLL3/CHO-s cells
Description: The plates were centrifuged at 300 g for 5 min, and the supernatant was removed. Different concentrations of test antibodies were added at 100 μL/well. The plates were incubated in the dark in a refrigerator at 4° C. for 1 h. After 3 centrifugal washes at 300 g, working concentrations of APC anti-human IgG Fc (BioLegend, 410712) or PE F(ab′)2-goat anti-human IgG (invitrogen, H10104) were added. The plates were incubated in the dark in a refrigerator at 4° C. for 40 min. After 3 centrifugal washes at 300 g, the geometric mean fluorescence intensity was measured on an Invitrogen flow cytometer, and the EC50 values for the binding of the antibodies to DLL3-expressing cells were calculated.

[4] = target: T2, human CD3D&3E (ACRO, CDD-H52W1) (human, UniProt P04234 22-105; P07766 23-126); test: SPR Biacore 8K, Ab captured on Protein A
T2 construct: bought CD3 delta/epsilon protein
Outline: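 Antibodies captured on a Protein A chip for 18 s; DLL3 or CD3D&3E antigen flowed 180 s, then 600 s dissociation, with real-time detection. Regeneration used 10 mM glycine-HCl pH 1.5 between cycles. Kinetics were obtained by 1:1 model fitting.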

[5] = target: T3, hDLL3 (ECD)-strep twin, biotinylated (human, UniProt Q9NYJ7 27-492, biotinylated); test: ELISA, biotinylated antigen on streptavidin, OD450
T3 construct: The entry carries a signal peptide (marked only by a dotted line); also called Biotinylated DLL3 antigen; human DLL3 protein
Description: (§1) Streptavidin (abcam, ab136200, 1 μg/mL) was plated at 100 μL/well, and the plates were incubated overnight at 4° C. The plates were washed 3 times with 250 μL of PBST solution (PBS containing 0.1% Tween 20) per well. The plates were blocked with 250 μL of 5% milk per well at 37° C. for 2 h. The plates were washed 3 times with 250 μL of PBST solution per well. Biotinylated DLL3 antigen (1 μg/mL) (SEQ ID NO: 9) was added, and the plates were incubated at 37° C. for 1 h. The plates were washed 3 times with 250 μL of PBST solution per well. Antibodies (maximum concentration 400 nM, serially diluted 4-fold) were formulated, and incubation was performed at 37° C. for 1 h. The plates were washed 6 times with 250 μL of PBST solution per well. […] The plates were washed 6 times with 250 μL of PBST solution per well. TMB (KPL, 5120-0077) substrate solution was added at 100 μL/well, and color development was performed at room temperature for 5-10 min. 1 M H₂SO₄ was added at 100 μL/well to stop the color development, and microplate reader (Molecular Devices, VERSA max) readings at 450 nm were taken.

DLL4 (ACRO, DL4-H5227) = target: T4, DLL4 (ACRO, DL4-H5227) (human, UniProt Q9NR61 27-524); test: ELISA, DLL4 coated at 1 µg/mL, detection with anti-human IgG (H+L)-HRP, OD450
T4 construct: Bought; also called human DLL4
Description: as §1, with “DLL1 (ACRO, DL1-H52H8, 1” for “Streptavidin (abcam, ab136200, 1”, “μg/mL) and DLL4 (ACRO, DL4-H5227, 1 μg/mL) were” for “μg/mL) was”, “well. Test antibodies (maximum concentration 100 nM, serially diluted 4-fold) were” for “well. Biotinylated DLL3 antigen (1 μg/mL) (SEQ ID NO: 9) was”, “incubated” for “incubated at 37° C. for 1 h. The plates were washed 3 times with 250 μL of PBST solution per well. Antibodies (maximum concentration 400 nM, serially diluted 4-fold) were formulated, and incubation was performed”

human DLL3 on cells [6] = target: T1, human DLL3 on cells; test: cell-based or functional assay; remark: listed apart in the source

T4 sequence (Q9NR61 27-524 limits assumed): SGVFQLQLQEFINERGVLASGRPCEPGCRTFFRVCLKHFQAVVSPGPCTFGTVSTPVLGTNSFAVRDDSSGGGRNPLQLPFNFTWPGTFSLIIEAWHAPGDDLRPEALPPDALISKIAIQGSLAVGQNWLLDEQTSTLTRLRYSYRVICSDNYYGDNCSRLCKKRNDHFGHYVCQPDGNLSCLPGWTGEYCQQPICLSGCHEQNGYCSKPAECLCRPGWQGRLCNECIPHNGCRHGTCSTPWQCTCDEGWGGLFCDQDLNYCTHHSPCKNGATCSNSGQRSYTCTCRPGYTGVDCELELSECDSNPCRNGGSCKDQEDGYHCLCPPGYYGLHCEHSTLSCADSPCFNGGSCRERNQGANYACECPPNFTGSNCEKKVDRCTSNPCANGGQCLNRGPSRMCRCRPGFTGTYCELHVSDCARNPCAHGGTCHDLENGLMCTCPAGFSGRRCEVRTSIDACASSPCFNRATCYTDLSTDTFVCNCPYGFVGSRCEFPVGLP
T2 sequence (P04234 22-105, chain 1 of 2): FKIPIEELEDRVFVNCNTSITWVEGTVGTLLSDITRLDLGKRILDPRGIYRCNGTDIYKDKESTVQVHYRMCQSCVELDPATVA
T2 sequence (P07766 23-126, chain 2 of 2): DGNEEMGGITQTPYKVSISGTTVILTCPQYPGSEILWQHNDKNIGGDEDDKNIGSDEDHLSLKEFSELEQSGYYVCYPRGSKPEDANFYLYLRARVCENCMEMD

EC50, Jurkat Lucia NFAT reporter with H82/DLL3 cells (human DLL3 on cells [2]) [nM]	Fold changes in activation, Jurkat Lucia NFAT reporter with H82/DLL3 cells (human DLL3 on cells [2]) [fold]	EC50 (human DLL3 on cells [3]) [nM]	Kd [4] [nM]	koff [4] [s⁻¹]	kon [4] [M⁻¹ s⁻¹]	Emax [5]	Binder	IC50, PBMC killing of H1184/lucG cells (human DLL3 on cells [1]) [nM]	Imax (%), PBMC killing of H1184/lucG cells (human DLL3 on cells [1]) [%]	binding result (DLL4 (ACRO, DL4-H5227))	IC50, PBMC killing of SHP77/lucG cells (human DLL3 on cells [6]) [nM]	Imax (%), PBMC killing of SHP77/lucG cells (human DLL3 on cells [6]) [%]
0.0177	18	5.07	46.7	0.00749	160000	0.45	hu110-S107E-hot Ig (bispecific antibody, Format 1 (Hot-Ig, Titin/Obscurin-replaced DLL3 Fab), DLL3 x CD3) light 1: NIVMTQSPKSLAVSLGERATINCKASENVGIFVSWYQQKPGQSPKLLIYGASNRYTGVPDRFSGSGSATDFTLTISSLQAEDVADYYCGQSHSYPLTFGQGTKLEIKGGGGSSGAPRFLTRPKASVVSVGKDATLSCQIVGNPFPQVSWEKDKQPVTAGVRFRLAQDGDLYRLKILDLQLSDSGQYVCRARNAHGEAFACLGLQVDAEA heavy 1: EVQLVQSGAEVKKPGASVKVSCKTSGYTFTDYYMNWVRQAPGQSLEWMGIINPYQGGTSYTQKFKGRVTITVDKSASTAYMELSSLRSEDTAVYYCARHFYDSSYLTYSTMDYWGQGTTVTVSSGGGGSGIPPKIECLPIDISIDEGKVLTVASAFTGEPTPEVTWSTGGRKIHSQEQGRFHIENTDDSTTLTIKDVQKQDGGLYTLTLRNEFGSDSATVNIHIRSIDKTHTCPPCPAPEAAGGPSVFLFPPKPKDTLMISRTPEVTCVVVDVSHEDPEVKFNWYVDGVEVHNAKTKPREEQYNSTYRVVSVLTVLHQDWLNGKEYKCKVSNKALPAPIEKTISKAKGQPREPQVCTLPPSREEMTKNQVSLSCAVKGFYPSDIAVEWESNGQPENNYKTTPPVLDSDGSFFLVSKLTVDKSRWQQGNVFSCSVMHEALHNHYTQKSLSLSPGK heavy 2: not shown light 2: not shown	0.0295	92	no binding (tested: log[antibody, nM] 2 (100 nM))		
		4.91				0.48	hu110-I2C-hot Ig (bispecific antibody, Format 1 (Hot-Ig, Titin/Obscurin-replaced DLL3 Fab), DLL3 x CD3) light 1: NIVMTQSPKSLAVSLGERATINCKASENVGIFVSWYQQKPGQSPKLLIYGASNRYTGVPDRFSGSGSATDFTLTISSLQAEDVADYYCGQSHSYPLTFGQGTKLEIKGGGGSSGAPRFLTRPKASVVSVGKDATLSCQIVGNPFPQVSWEKDKQPVTAGVRFRLAQDGDLYRLKILDLQLSDSGQYVCRARNAHGEAFACLGLQVDAEA heavy 1: EVQLVQSGAEVKKPGASVKVSCKTSGYTFTDYYMNWVRQAPGQSLEWMGIINPYQGGTSYTQKFKGRVTITVDKSASTAYMELSSLRSEDTAVYYCARHFYDSSYLTYSTMDYWGQGTTVTVSSGGGGSGIPPKIECLPIDISIDEGKVLTVASAFTGEPTPEVTWSTGGRKIHSQEQGRFHIENTDDSTTLTIKDVQKQDGGLYTLTLRNEFGSDSATVNIHIRSIDKTHTCPPCPAPEAAGGPSVFLFPPKPKDTLMISRTPEVTCVVVDVSHEDPEVKFNWYVDGVEVHNAKTKPREEQYNSTYRVVSVLTVLHQDWLNGKEYKCKVSNKALPAPIEKTISKAKGQPREPQVCTLPPSREEMTKNQVSLSCAVKGFYPSDIAVEWESNGQPENNYKTTPPVLDSDGSFFLVSKLTVDKSRWQQGNVFSCSVMHEALHNHYTQKSLSLSPGK heavy 2: not shown light 2: not shown			no binding (tested: log[antibody, nM] 2 (100 nM))	0.0222	96
0.00636		4.52				0.48	hu110-I2C-Y body (bispecific antibody, Format 2 (Y body: DLL3 Fab-Fc hole + CD3 scFv-Fc knob)) light: NIVMTQSPKSLAVSLGERATINCKASENVGIFVSWYQQKPGQSPKLLIYGASNRYTGVPDRFSGSGSATDFTLTISSLQAEDVADYYCGQSHSYPLTFGQGTKLEIKRTVAAPSVFIFPPSDEQLKSGTASVVCLLNNFYPREAKVQWKVDNALQSGNSQESVTEQDSKDSTYSLSSTLTLSKADYEKHKVYACEVTHQGLSSPVTKSFNRGEC heavy: EVQLVQSGAEVKKPGASVKVSCKTSGYTFTDYYMNWVRQAPGQSLEWMGIINPYQGGTSYTQKFKGRVTITVDKSASTAYMELSSLRSEDTAVYYCARHFYDSSYLTYSTMDYWGQGTTVTVSSASTKGPSVFPLAPSSKSTSGGTAALGCLVKDYFPEPVTVSWNSGALTSGVHTFPAVLQSSGLYSLSSVVTVPSSSLGTQTYICNVNHKPSNTKVDKKVEPKSCDKTHTCPPCPAPEAAGGPSVFLFPPKPKDTLMISRTPEVTCVVVDVSHEDPEVKFNWYVDGVEVHNAKTKPREEQYNSTYRVVSVLTVLHQDWLNGKEYKCKVSNKALPAPIEKTISKAKGQPREPQVCTLPPSREEMTKNQVSLSCAVKGFYPSDIAVEWESNGQPENNYKTTPPVLDSDGSFFLVSKLTVDKSRWQQGNVFSCSVMHEALHNHYTQKSLSLSPGK not shown	0.00642	98	no binding (tested: log[antibody, nM] 2 (100 nM))	0.0338	100
